Laboratory results from the nanobody polyreactivity screen of Harvey et al. (2022).

Assay: yeast display, Sf9 membrane polyspecificity reagent, FACS + sequencing; frameworks hold sequencing errors
Outline: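 After 36–48 hours of galactose induction, yeast (Saccharomyces cerevisiae BJ5465) displaying a synthetic nanobody library were stained at 4 °C for 1 hour with 10% biotinylated, detergent-solubilized Sf9 membrane reagent. Streptavidin microbeads enriched the stained cells before FACS sorting into low and high (top ~1%) gates on anti-HA and streptavidin fluorescence. Each clone's polyreactivity label reflects its gate of origin.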

Sequence	polyreactivity (PSR sort gate)
QVQLVESGGGLVQAGGSLRLSCAASGSTFTGYAMGWYRQAPGKERELVAAISRSVGRTYYADSVKGRFTISRDNAKNTVYLQMNSLKPEETAVYYCAADVFLTGSRNYYWGQGTQVTVSS	high polyreactivity
QVQLVESGGGLVQAGGSLRLSCAASGSTFTGYTKGWYRQAPGKERELVAAITYRGGSTYYADSVKGRFTISRDNAKNTVYLQMNSLKPEDTAVYYCAAVPEYYEYSPYDYWGQGTQVTVSS	low polyreactivity
QVQLVESGGGLVQAGGSLRLSCAASGSTFTHYDMGWYRQAPGKERELVADISRSGGRTYYADSVKGRFTISRDNAKNTVYLQMNSLKPEDTAVYYCATEFEHINGVNQGPYIDDYSWGQGSQVTVSS	low polyreactivity
QVQLVESGGGLVQAGGSLRLSCAASGSTFTINVMGSYRQAPGKERELVAAINGGGRTNYADSVKGRFTISRDNAKNTVYLQMNSLKPEDTAVYYCAADGLSNVRQMDYWGQGTQVTVSS	low polyreactivity
QVQLVESGGGLVQAGGSLRLSCAASGSTFTIYAMGWYRQAPGKERELVAAITWNGGSTYYADSVKGRFTISRDNAKKTVYLQMNRLKPEDTAVYYCAAKFRYQYVRVAREYYYWGQGTQVTVSS	high polyreactivity
QVQLVESGGGLVQAGGSLRLSCAASGSTFTIYAMGWYRQAPGKERELVAGITRVGSTNYADSVKGRFTISRDNAKYTVYLQMNSLKPEDTAVYYCARRDLFQAGYEYWGQGTQVTVSS	low polyreactivity
QVQLVESGGGLVQAGGSLRLSCAASGSTFTIYDMGWSRQAPGKERELVASISQGAGSTYYADSVKGRFTISRDNAKNTVYLQMNSQKPEDTAVYYCAADWYQSYVFVYWEGEYWAQGTQVTVSS	high polyreactivity
QVQLVESGGGLVQAGGSLRLSCAASGSTFTIYVIGWYRTAPGKERELVAAINGGGRTNYADSVKGRFTISRDNAKNTVYLQMNSLKPEDTAVYYCAADGLSNVRQMDYWGQGTQVTVSS	low polyreactivity
QVQLVESGGGLVQAGGSLRLSCAASGSTFTKYAMGWYRQEPGKDREFVAGINYSGGSTYYADSVKVRFTISRDNAKNTVYLLMKSLKPEDTAVYYCNARKQNRRGAKYDYWGQGTQVTVSS	high polyreactivity
QVQLVESGGGLVQAGGSLRLSCAASGSTFTLNAMGWYRQAPGKERELVADISWSSGRTYYADSVKGRFTISRDNAKNTVYFQMNSLKPEDTAVYYCATDDFWNVKFYAYYPEFDYWGQGTQVTVSS	low polyreactivity
QVQLVESGGGLVQAGGSLRLSCAASGSTFTLNAMGWYRQAPGKERELVADISWSSGRTYYADSVKGRVTISRDNAKNTVYLQMNSLKPEDTAVYYCATDDFWNVKFYAYYPDFDHWGQGTQVTVSS	low polyreactivity
QVQLVESGGGLVQAGGSLRLSCAASGSTFTLYAMGWYRQAPGKERELVAAISGIGDSTYYADSVKGRFTISRDNAKNTVYLQMNSLKPEDTAVYYCAADGEYRYDWEYESWGQGTKVTVSS	low polyreactivity
QVQLVESGGGLVQAGGSLRLSCAASGSTFTLYAMGWYRQAPGKERELVAAISWSSGSTYYADSVKGRFTISRDNAKNTVYLQMNSLKPEDTAVYYCNARRFGLTQYYYWGQGTQVTVSS	low polyreactivity
QVQLVESGGGLVQAGGSLRLSCAASGSTFTLYAMGWYRQAPGKERELVAAISWSTTSTYYADSVKGRFTISRDNAKNTVYLQMNSLKPEDTAVYYCAAELYRAEYDYWGQGTQVTVSS	high polyreactivity
QVQLVESGGGLVQAGGSLRLSCAASGSTFTNNDMGWYRPAPGKERELVAAITDSDGITYYADSVKGRFTISRDNAKNTVYLQMNSLKPDDSAVYYCAAYYYGSVAQDREYWGQGTQVTVSS	high polyreactivity
QVQLVESGGGLVQAGGSLRLSCAASGSTFTNYAMGWYRPAPGKERELVARITSSGSRTYYADSVKGRFTISRDNAKNTVYLQMNSLKPEDTAVYYCNAETYYLRYGRGYRRFDYWGQGTQVTVSS	high polyreactivity
QVQLVESGGGLVQAGGSLRLSCAASGSTFTPNAMGWYRQAPGKERELVAAIRYTGVGTYYADSVKGRFTISRDNAKNTVYLQMNSLKPEDTAVYYCNRVSRYYNYDYWGQGTQVTVSS	high polyreactivity
QVQLVESGGGLVQAGGSLRLSCAASGSTFTPNAMVWYRQAPGKERELVAAINWSDSSTYYADSVKGRFTISRDNAKNTVYLQMNSLKPEDTAVYYCAAAAQYGQLQVPVYYWGQGTQVTVSS	low polyreactivity
QVQLVESGGGLVQAGGSLRLSCAASGSTFTPYAMGWYRQAPGQEREFVAAITSIGGSTYYADSVKGRITISRDNAKNTVYLQMIRLKPEDTAVYNCAADYSEWTLWNDYWGQCTQVTVSS	high polyreactivity
QVQLVESGGGLVQAGGSLRLSCAASGSTFTPYGMGWYRQAPGKERELVAAITVSGGRTYYADSVKGRFTISRDNAKNTVYLQMNSLKPEDTAVYYCAAVYLRGDGEYDYWGQGTQVTVSS	low polyreactivity
QVQLVESGGGLVQAGGSLRLSCAASGSTFTPYTMGWYRKAPGKETELVAAIRYGGGSTYYADSVKGRFTISRDNAKNTVYLQMNSLKPEDTAVYYCAVDSFYSGGTYDSDGYWGQGTQVTVSS	low polyreactivity
QVQLVESGGGLVQAGGSLRLSCAASGSTFTRNAMGWYRPAPGKERELVAAITSSGGYTYYADSVKGRFTISRDNAKNTVYLQMNSLKPEDTAVYYCAAYPHRPRDRELDHWGQGTQVTVSS	low polyreactivity

Sequence	polyreactivity (PSR sort gate)
QVQLVESGGGLVQAGGSLRLSCAASGSTFTRYVMGWYRQAPGKERELVAAISKRGGSTYYADSVKGRFTISRDNAKHTVYLQMNSLKPVDPAVYYCNRVSRAPFDYWGQGTQVTVSS	high polyreactivity
QVQLVESGGGLVQAGGSLRLSCAASGSTFTRYVMGWYRQAPGKERELVAAISKRGGSTYYADSVKGRFTISRDNAKNTVYLQMNSLKPEDTAVYYCNRVSRAPFDYWGQGTQVTVSS	high polyreactivity
QVQLVESGGGLVQAGGSLRLSCAASGSTFTSNAMGWYRQAPGKEREFVAAISVGGGITYYADSVKGRFTISRDNAKISVYLQMNSLKPEDTAVYYCAADGEYPHSEDFEYWGQGTQVTVSS	low polyreactivity
QVQLVESGGGLVQAGGSLRLSCAASGSTFTSNAMGWYRQAPGKERELVAAISFSDASTYYADSVKGRFTISRDNAKKTVYLQMNRLKPEDTAVYYCNADYPTTAYDYCGQGTQVTVSS	low polyreactivity
QVQLVESGGGLVQAGGSLRLSCAASGSTFTSNAMGWYRQAPGKERELVAAISSGGSTSYADSVKGRFSISRDNAKNTVYLQMNSLKPEDTAVYYCAVGVLYAGYFYRYRYYYWGQGTQVTVSS	high polyreactivity
QVQLVESGGGLVQAGGSLRLSCAASGSTFTSNAMGWYRQAPGKERELVASISGSGGRTDYADSVKGRFTISRDNAKNTVYLQMNSLKPEDTAVYYCNAESRNLYSTQFDYWGQGTQVTVSS	low polyreactivity
QVQLVESGGGLVQAGGSLRLSCAASGSTFTSNAMGWYRQAPGKERELVASISGSGGRTYYADSVKGRFTISRDNAKNTVYLQMNSLKPEDTAVYYCNAESRNLYSTQFDYLGQGTQVTVSS	low polyreactivity
QVQLVESGGGLVQAGGSLRLSCAASGSTFTSYAMGWYRQAPGKERELVAAINWSGGSTYYADSVKGRFTISRDIAKNTVYLQMNSLKPEDTAVYYCAVLYRYGYDYWGQGTQVTVSS	low polyreactivity
QVQLVESGGGLVQAGGSLRLSCAASGSTFTSYAMGWYRQAPGKERELVAAITSRGGTSYADSVKGRFTISRDNAKNTVYLQMNSLKPEDTAVYYCAARATYKKYPYVKWYDYWGQGPQVTVSS	high polyreactivity
QVQLVESGGGLVQAGGSLRLSCAASGSTFTSYAMGWYRQAPGKERELVAAITYGSGTTYADSVKGRFTISRDNAKNTVYLQMNSLKPEDTAVYYCAADFYYPVLGHGFPTYEYDYWGQGTQVTVSS	low polyreactivity
QVQLVESGGGLVQAGGSLRLSCAASGSTFTSYDMGWYRQAPGKERELVAAITISSGGTYYADSVKGRFTISRDNAKITVYLQMNSLKPEDTAVYYCAADIFADASYDYWGQGTQVTVSS	low polyreactivity
QVQLVESGGGLVQAGGSLRLSCAASGSTFTTNAMGWDRQAPGKERELVAAITWSVGSTYYADSVKGRFTISRDYAKNTVYLQMNSVKPEDNAVYYCAAYHPPGDTYEYWGQGTQVTVSS	low polyreactivity
QVQLVESGGGLVQAGGSLRLSCAASGSTFTTYAMGWYRQAPGKERELVAVITDSGGTYYADSVKGRFTISRDNAKNTVYLQMNSLKPEDTAVYYCNRFFPPTDYEFDSWGQGTQVTVSS	low polyreactivity
QVQLVESGGGLVQAGGSLRLSCAASGSTFTTYAMGWYRQAPGKESELVAAITWSVGSTYYADSVMGRFTISRDNAKNTVYLQMNSLKPEDTAVYYCAADPTGGVGFDGYYWGQGTQVTVSS	low polyreactivity
QVQLVESGGGLVQAGGSLRLSCAASGSTFTVNGMGWYRQAPGKERELVASITWSGGSTYYADSVKGRFTISRDNAKNTVYLLMNSLKPEDTAVYYCAADEKLYITGYDYWGHGTQVTVSS	low polyreactivity
QVQLVESGGGLVQAGGSLRLSCAASGSTFTVNGMGWYRQAPGKERELVASITWSGGSTYYADSVKGRFTISRDNAKNTVYLQMNSLNPEDTAVYYCAADEKLYITGYDYWVQGTQVTVSS	low polyreactivity
QVQLVESGGGLVQAGGSLRLSCAASGSTFTVNGMGWYRQAPGKERELVASITWSGGSTYYADTVKGRFTISRDNAKNTVYLQMNSLKPEDTAVYYCAADEKLYITGYDYWGQGTQVTVSS	low polyreactivity
QVQLVESGGGLVQAGGSLRLSCAASGSTFTVYAMGWYRQAPGKERELVAAISSSTGSTYYADSVKGRFTISRDNAKNTVYLQMNSLKPEDTAVYYCAADVYQVTTSSYTEFEYWGQGTQVTVSS	low polyreactivity
QVQLVESGGGLVQAGGSLRLSCAASGSTFTWNVMGWYRQAPGKERELVASITSGDSTYADSVKGRFTISRDNAKNTVYLQMNSLKPEDTAVYYCNVGYDQEKYGYWGQGTQVTVSS	low polyreactivity
QVQLVESGGGLVQAGGSLRLSCAASGSTFTWYAMGWSRQAPGKERELVADISYGGGSTYYADSVKGRFTISRDNAKNTVYLQMNSLKPEDTAVYYCAAESIPYYRYDYWGQGTQVTVSS	low polyreactivity
QVQLVESGGGLVQAGGSLRLSCAASGSTFTYNAMGWYRQAPGKERELVAVIRPGGNTNDADSVKGRFTISRDNAKNTVYLQMNSLKPEDTAVYYCAKYFGNYSIYDYWGQGTQVTVSS	low polyreactivity
